Data reported in US20250250343A1.
Where two headings read alike, the source gives them in different places. One block for each substance: values may come before it.

What was measured:
VEGF (human) [1] = target: VEGF (human) (UniProt P15692)
VEGF (human) [2] = target: VEGF (human) (UniProt P15692); remark: listed apart in the source
VEGF (human) [3] = target: VEGF (human) (UniProt P15692); remark: listed apart in the source
human Tie2 (human) [4] = target: human Tie2 (human) (UniProt Q02763)
human Tie2 (human) [5] = target: human Tie2 (human) (UniProt Q02763); remark: listed apart in the source
human Tie2 (human) [6] = target: human Tie2 (human) (UniProt Q02763); remark: listed apart in the source
human Tie2 (human) [7] = target: human Tie2 (human) (UniProt Q02763); remark: listed apart in the source
human Tie2 (human) [8] = target: human Tie2 (human) (UniProt Q02763); remark: listed apart in the source

Chain of VEGF (human) (P15692 other isoform, or with tags, fused parts or gaps limits assumed): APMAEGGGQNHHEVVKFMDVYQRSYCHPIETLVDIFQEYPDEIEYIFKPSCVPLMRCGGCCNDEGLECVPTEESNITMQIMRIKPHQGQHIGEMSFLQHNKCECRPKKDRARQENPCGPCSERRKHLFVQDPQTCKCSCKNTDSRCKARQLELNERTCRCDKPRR
Chain of human Tie2 (human) (Q02763 23-1124): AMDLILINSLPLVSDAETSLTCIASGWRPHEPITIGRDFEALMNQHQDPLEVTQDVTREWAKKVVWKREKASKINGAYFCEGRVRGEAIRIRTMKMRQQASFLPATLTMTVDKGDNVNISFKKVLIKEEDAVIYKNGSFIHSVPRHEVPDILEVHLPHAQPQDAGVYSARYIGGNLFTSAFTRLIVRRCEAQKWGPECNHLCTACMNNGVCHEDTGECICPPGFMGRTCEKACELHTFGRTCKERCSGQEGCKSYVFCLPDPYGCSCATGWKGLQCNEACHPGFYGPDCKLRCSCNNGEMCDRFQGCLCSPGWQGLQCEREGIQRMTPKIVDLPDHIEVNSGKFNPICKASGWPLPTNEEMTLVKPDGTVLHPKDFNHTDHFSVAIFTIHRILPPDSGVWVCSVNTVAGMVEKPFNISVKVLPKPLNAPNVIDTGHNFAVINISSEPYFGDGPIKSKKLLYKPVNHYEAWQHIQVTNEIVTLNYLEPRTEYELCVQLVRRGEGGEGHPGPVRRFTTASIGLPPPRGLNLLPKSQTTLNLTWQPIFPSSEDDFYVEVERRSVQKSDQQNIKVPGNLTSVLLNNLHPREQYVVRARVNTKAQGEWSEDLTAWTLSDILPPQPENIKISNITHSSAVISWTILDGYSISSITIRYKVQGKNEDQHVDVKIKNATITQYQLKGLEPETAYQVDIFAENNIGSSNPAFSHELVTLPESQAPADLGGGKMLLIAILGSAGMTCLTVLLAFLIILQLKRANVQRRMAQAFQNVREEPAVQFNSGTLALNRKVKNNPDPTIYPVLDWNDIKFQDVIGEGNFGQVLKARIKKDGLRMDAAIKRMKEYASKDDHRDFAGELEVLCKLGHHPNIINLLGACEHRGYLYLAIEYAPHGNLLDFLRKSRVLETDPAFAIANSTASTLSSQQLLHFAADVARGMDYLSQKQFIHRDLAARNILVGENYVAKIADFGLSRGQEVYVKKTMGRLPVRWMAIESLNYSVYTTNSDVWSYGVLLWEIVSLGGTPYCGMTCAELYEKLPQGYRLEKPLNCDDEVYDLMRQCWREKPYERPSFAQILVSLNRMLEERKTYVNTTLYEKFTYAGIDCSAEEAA
Chain of Ang1 (Q15389 20-498 limits assumed): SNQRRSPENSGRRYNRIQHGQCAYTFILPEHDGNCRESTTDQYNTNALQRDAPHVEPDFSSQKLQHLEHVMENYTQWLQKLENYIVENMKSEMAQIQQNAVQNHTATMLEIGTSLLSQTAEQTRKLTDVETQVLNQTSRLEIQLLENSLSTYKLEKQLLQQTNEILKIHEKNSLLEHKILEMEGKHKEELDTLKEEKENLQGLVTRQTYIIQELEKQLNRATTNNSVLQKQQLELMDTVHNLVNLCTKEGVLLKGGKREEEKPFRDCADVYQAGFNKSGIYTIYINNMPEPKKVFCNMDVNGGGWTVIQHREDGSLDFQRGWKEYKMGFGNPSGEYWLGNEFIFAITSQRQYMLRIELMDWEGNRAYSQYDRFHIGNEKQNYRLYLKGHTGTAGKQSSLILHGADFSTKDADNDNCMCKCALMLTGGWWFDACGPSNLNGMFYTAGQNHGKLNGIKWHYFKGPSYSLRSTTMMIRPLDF
Chain of Aflibercept-LALA-PG (Fc fusion) (chain): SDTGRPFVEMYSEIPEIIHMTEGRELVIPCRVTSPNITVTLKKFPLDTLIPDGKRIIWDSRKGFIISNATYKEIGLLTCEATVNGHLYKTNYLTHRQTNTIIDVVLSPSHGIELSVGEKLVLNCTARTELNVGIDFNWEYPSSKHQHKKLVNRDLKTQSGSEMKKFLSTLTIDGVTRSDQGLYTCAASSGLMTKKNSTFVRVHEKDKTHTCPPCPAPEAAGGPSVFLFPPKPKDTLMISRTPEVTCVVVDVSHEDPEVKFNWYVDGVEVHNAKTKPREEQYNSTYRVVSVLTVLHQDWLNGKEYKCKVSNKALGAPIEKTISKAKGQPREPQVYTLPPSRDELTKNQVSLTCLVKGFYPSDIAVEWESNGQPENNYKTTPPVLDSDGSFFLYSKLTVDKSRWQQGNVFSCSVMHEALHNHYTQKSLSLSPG
Chain of Aflibercept (Fc fusion) (chain): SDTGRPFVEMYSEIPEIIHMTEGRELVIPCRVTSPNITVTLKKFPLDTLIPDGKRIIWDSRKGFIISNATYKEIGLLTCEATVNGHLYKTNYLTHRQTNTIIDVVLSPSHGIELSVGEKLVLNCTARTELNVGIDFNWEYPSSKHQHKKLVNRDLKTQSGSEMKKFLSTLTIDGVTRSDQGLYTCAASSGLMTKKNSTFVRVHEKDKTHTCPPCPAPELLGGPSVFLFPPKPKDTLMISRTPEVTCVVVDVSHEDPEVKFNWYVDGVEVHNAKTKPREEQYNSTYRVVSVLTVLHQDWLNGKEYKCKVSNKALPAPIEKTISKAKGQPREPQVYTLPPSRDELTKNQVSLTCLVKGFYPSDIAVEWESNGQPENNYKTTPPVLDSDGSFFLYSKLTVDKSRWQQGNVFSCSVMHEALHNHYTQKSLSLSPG

EC50, VEGF inhibition, KDR/NFAT-RE HEK293 luciferase reporter [Panel C] (VEGF (human) [1]): 280 pM
Substance: Aflibercept (Fc fusion)

EC50, VEGF neutralisation, KDR/NFAT-RE HEK293 luciferase reporter (VEGF (human) [2]): 560 pM
IC50 (read off the curve); % VEGF activity, KDR/NFAT-RE HEK293 luciferase reporter [Panel A] (VEGF (human) [3]): 600 pM
Substance: Aflibercept-LALA-PG (Fc fusion)

EC50, pTie2 in HUVEC (in vitro potency) (human Tie2 (human) [4]): 0.00458 µM
EC50, pAkt in HUVEC (MSD ELISA) [Panel B] (human Tie2 (human) [5]): 0.00171 µM
EC50, pTie2 in HUVEC, W/ VEGF (20 nM VEGF-165 per paragraph 153) [Panel E] (human Tie2 (human) [6]): 0.0024 µM
EC50, pTie2 in HUVEC, W/O VEGF [Panel E] (human Tie2 (human) [6]): 0.00161 µM
EC50, pAkt in HUVEC (MSD ELISA) [Panel B] (human Tie2 (human) [7]): 0.0041 µM
EC50, pTIE2 in HUVEC [Panel C] (human Tie2 (human) [8]): 0.00177 µM
Substance: Ang1 (from UniProt Q15389 20-498) (ligand)
